Six substances from IntAct's records for PubMed 20969867 can be followed below.

The target of assay [1] is kmt2a_human KMT2A (UniProt Q03164).
For assay [2] the target is unchanged. This is another data set of the same source.
The target is the same in assay [3]. This is another data set of the same source.
The target is the same in assay [4]. This is another data set of the same source.
Assay [5] has the same target. This is another data set of the same source.
Assay [6] shares this target. The source holds these as a separate data set.
For assay [7] the target is unchanged. This is another data set of the same source.

kmt2a_human KMT2A, sequence (Q03164 whole entry): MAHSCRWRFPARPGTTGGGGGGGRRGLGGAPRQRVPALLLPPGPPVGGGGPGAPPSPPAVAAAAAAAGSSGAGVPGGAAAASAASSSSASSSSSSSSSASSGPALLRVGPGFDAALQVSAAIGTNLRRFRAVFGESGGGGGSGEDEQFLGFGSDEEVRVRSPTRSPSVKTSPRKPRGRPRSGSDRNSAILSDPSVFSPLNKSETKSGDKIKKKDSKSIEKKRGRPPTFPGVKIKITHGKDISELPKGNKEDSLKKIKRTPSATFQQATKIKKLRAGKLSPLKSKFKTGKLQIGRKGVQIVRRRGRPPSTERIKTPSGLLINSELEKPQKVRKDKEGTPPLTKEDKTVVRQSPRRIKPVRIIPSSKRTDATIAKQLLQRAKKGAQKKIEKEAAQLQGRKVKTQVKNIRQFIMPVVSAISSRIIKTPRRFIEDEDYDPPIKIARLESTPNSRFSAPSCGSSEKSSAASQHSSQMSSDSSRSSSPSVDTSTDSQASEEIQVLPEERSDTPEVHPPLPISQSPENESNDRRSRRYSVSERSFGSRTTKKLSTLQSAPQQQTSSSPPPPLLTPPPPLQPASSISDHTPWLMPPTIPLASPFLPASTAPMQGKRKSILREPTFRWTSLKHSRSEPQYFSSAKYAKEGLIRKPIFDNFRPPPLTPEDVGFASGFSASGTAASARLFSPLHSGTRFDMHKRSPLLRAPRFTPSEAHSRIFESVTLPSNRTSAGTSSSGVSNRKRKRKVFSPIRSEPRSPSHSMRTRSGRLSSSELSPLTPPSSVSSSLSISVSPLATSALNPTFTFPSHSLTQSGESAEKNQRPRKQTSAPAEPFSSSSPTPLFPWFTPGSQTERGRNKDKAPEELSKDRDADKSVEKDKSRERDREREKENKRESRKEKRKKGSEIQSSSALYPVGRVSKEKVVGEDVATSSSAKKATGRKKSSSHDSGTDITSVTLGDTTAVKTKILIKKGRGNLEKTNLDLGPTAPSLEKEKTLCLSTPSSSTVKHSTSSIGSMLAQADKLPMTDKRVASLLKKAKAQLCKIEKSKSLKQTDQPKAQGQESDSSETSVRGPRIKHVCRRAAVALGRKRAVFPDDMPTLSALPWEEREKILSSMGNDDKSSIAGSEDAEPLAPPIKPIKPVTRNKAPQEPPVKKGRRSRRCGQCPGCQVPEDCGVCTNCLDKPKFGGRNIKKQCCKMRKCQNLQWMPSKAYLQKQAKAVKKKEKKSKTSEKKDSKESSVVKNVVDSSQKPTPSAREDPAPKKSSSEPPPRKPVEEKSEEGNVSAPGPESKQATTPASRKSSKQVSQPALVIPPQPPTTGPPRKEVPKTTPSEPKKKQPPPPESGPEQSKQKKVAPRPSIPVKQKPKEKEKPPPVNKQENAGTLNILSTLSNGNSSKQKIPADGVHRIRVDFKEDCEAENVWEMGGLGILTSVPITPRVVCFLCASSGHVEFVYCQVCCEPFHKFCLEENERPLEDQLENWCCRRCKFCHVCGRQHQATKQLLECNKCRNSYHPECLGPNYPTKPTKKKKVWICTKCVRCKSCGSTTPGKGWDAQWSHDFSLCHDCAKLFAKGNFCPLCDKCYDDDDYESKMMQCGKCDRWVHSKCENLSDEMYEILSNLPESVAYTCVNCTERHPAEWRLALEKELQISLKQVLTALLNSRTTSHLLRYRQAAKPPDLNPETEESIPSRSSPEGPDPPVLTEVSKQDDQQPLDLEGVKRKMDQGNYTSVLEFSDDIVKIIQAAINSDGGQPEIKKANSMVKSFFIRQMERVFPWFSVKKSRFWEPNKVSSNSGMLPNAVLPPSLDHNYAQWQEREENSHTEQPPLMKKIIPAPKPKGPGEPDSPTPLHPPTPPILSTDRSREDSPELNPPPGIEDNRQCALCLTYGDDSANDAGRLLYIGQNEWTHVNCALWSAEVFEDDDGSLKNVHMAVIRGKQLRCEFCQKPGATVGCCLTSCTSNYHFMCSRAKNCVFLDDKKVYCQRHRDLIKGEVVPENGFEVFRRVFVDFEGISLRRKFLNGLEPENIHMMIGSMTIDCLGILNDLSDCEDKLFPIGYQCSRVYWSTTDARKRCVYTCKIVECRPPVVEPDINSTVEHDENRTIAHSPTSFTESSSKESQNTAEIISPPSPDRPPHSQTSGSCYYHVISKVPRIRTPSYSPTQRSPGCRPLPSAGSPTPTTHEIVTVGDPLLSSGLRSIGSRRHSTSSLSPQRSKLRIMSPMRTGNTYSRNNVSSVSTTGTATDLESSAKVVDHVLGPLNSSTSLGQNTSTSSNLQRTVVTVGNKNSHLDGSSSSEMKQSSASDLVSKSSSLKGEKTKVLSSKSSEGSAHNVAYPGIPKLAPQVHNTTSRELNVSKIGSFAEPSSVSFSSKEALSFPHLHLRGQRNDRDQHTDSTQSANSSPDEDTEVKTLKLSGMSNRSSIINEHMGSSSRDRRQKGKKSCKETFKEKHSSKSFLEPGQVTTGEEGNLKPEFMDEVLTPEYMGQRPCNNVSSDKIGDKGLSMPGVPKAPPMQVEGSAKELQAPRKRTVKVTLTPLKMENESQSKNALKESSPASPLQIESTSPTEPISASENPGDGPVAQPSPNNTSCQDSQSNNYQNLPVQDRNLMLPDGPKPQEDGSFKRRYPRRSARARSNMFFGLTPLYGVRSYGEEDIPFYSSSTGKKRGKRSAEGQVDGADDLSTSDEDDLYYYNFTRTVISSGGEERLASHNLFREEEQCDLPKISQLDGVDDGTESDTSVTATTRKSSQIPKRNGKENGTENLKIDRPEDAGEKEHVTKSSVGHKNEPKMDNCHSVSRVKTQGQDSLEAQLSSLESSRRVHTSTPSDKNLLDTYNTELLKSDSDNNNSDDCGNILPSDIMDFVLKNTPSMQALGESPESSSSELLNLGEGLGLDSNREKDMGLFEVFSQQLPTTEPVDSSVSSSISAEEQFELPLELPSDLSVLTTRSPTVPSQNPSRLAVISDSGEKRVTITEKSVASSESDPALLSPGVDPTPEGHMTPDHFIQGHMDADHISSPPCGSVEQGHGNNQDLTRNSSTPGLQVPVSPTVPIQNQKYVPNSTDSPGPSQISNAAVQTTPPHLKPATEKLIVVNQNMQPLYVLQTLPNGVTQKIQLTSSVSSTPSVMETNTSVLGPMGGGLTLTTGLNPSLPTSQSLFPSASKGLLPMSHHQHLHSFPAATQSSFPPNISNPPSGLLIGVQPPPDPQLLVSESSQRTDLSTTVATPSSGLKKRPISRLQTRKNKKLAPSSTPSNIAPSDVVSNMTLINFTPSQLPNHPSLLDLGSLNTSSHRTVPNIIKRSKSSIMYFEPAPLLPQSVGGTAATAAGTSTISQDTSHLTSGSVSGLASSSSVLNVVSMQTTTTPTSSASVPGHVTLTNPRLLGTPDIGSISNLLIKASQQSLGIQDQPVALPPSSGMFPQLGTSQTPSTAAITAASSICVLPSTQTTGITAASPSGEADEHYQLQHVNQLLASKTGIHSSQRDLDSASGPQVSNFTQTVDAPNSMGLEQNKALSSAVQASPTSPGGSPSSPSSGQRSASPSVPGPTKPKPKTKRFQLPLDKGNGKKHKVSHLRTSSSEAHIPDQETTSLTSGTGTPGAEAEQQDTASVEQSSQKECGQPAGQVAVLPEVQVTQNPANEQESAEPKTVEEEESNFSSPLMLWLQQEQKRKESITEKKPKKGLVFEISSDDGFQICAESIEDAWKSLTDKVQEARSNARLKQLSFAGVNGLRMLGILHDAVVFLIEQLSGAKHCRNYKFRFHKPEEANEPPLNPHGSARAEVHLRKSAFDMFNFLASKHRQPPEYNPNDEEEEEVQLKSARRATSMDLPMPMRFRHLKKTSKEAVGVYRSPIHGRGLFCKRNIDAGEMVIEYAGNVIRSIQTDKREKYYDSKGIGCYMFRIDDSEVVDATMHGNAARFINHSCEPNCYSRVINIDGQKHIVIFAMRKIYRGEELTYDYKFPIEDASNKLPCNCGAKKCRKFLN

On to “Histone lysine acetyltransferase CREBBP (Mus musculus), P45481 F612A”, for which, in the assay with kmt2a_human KMT2A [1], the “effect of a mutation on the interaction” value is on record as “decreasing interaction”.
Take “Histone lysine acetyltransferase CREBBP (Mus musculus), P45481 L628A”: the entries for the “effect of a mutation on the interaction” value with kmt2a_human KMT2A [2] and with kmt2a_human KMT2A [3] were “disrupting interaction” and “decreasing interaction”, respectively.
Consider “Histone lysine acetyltransferase CREBBP (Mus musculus), P45481 L664A”, for which the “effect of a mutation on the interaction” value in the assay with kmt2a_human KMT2A [4] is given as “decreasing interaction”.
Turning to “Histone lysine acetyltransferase CREBBP (Mus musculus), P45481 R624A”, in the assay with kmt2a_human KMT2A [5], the “effect of a mutation on the interaction” value is given as “decreasing interaction”.
In the case of “Histone lysine acetyltransferase CREBBP (Mus musculus), P45481 R668A”, in the assay with kmt2a_human KMT2A [6], the “effect of a mutation on the interaction” value was “decreasing interaction”.
Consider “Histone lysine acetyltransferase CREBBP (Mus musculus), P45481 Y631A”, for which, in the assay with kmt2a_human KMT2A [7], the “effect of a mutation on the interaction” value is reported as “decreasing interaction”.
